The supplement of paper PMC7877785
± gives the uncertainty stated by the source.

Assay: self-splicing fitness, log relative to wild type (ln ratio); higher = more splicing; Tetrahymena group I intron in knt gene, E. coli kanamycin selection, DiMSum; sequences stand for … in CUCUCU…GGAGGGAAAAGUUAUCAGGCAUGCACCUGGUAGCUAGUCUUUAAACCAAUAGAUUGCAUCGGUUUAAAAGGCAAGACCGUCAAAUUGCGGGAAAGGGGUCAACAGCCGUUCAGUACCAAGUCUCAGGGGAAACUUUGAGAUGGCCUUGCAAAGGGUAUGGUAAUAAGCUGACGGACAUGGUCCUAACCACGCAGCCAAGUCCUAAGUCAACAGAUCUUCUGUUGAUAUGGAUGCAGUUCACAGACUAAAUGUCGGUCGGGGAAGAUGUAUUCUUCUCAUAAGAUAUAGUCGGACCUCUCCUUAAUGGGAGCUAGCGGAUGAAGUGAUGCAACACUGGAGCCGCUGGGAACUAAUUUGUAUGCGAAAGUAUAUUGAUUAGUUUUGGAGUACUCGUGGUCG
Method in brief: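 Fitness was computed with DiMSum as the error-weighted combination of replicate fold changes, kanamycin versus none, each normalised to wild type. The library randomised all eight intron nucleotides of the P1ex region, with the intron placed in the knt kanamycin-resistance gene on pET-22b(+) in E. coli BL21(DE3). Six replicate transformations were grown overnight at 37°C or 30°C on LB agar with or without 25 μg/mL kanamycin, plus 100 μg/mL carbenicillin, 50 μM IPTG and 0.2% rhamnose. Pooled colonies were amplicon-sequenced on an Illumina HiSeq 2500.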

Row | Sequence | self-splicing fitness (ln) (30 °C) | self-splicing fitness (ln) (37 °C)
1 | CGUAAGCAAUAUUACGCAGU | -3.05 ± 0.2 | -2.64 ± 0.34
2 | CGUAAGCAAUAUUACGCCCG | -1.93 ± 0.18 | -0.621 ± 0.23
3 | CGUAAGCAAUAUUACGCUAG | -2.48 ± 0.13 | -0.429 ± 0.14
4 | CGUAAGCAAUAUUACGGACU | -0.0269 ± 0.14 | -0.0508 ± 0.14
5 | CGUAAGCAAUAUUACGGAGA | -2.79 ± 0.24 | -2.28 ± 0.29
6 | CGUAAGCAAUAUUACGGAUA |  | -2.1 ± 0.38
7 | CGUAAGCAAUAUUACGGGCA | -3.24 ± 0.23 | -1.09 ± 0.14
8 | CGUAAGCAAUAUUACGGUGG | -1.48 ± 0.082 | -1.25 ± 0.11
9 | CGUAAGCAAUAUUACGUAAC | -4.35 ± 0.26 | -2.51 ± 0.21
10 | CGUAAGCAAUAUUACGUCAG | -1.56 ± 0.11 | 0.0936 ± 0.11
11 | CGUAAGCAAUAUUACGUGCA | -0.906 ± 0.086 | 0.102 ± 0.096
12 | CGUAAGCAAUAUUACGUGGG | -3.43 ± 0.16 | -2.67 ± 0.15
13 | CGUAAGCAAUAUUACGUUGC | -2.73 ± 0.22 | -1.81 ± 0.29
14 | CGUCAGCAAUAUUACGAACA | -0.807 ± 0.078 | 0.843 ± 0.12
15 | CGUCAGCAAUAUUACGAGUA | -2.55 ± 0.28 | -2.69 ± 0.39
16 | CGUCAGCAAUAUUACGAGUC |  | -1.18 ± 0.18
17 | CGUCAGCAAUAUUACGAGUU | -3.3 ± 0.22 | -1.84 ± 0.22
18 | CGUCAGCAAUAUUACGAUAA | -1.1 ± 0.14 | 0.157 ± 0.12
19 | CGUCAGCAAUAUUACGCAAA | -2.96 ± 0.17 | -1.12 ± 0.16
20 | CGUCAGCAAUAUUACGCAGA | -2.79 ± 0.46 | -3.76 ± 0.46
21 | CGUCAGCAAUAUUACGCGGA |  | -3.17 ± 0.32
22 | CGUCAGCAAUAUUACGGAAG | -0.632 ± 0.088 | 0.304 ± 0.12
23 | CGUCAGCAAUAUUACGGACU | -0.14 ± 0.09 | 0.0847 ± 0.089
24 | CGUCAGCAAUAUUACGGGGA | -2.96 ± 0.16 | -1.91 ± 0.14
25 | CGUCAGCAAUAUUACGGUCG | -2.52 ± 0.11 | -2 ± 0.15
26 | CGUCAGCAAUAUUACGGUCU | -0.849 ± 0.079 | -0.828 ± 0.1
27 | CGUCAGCAAUAUUACGGUUG | -0.45 ± 0.065 | -0.256 ± 0.081

Row | Sequence | self-splicing fitness (ln) (30 °C) | self-splicing fitness (ln) (37 °C)
28 | CGUCAGCAAUAUUACGUCAC |  | -1.42 ± 0.26
29 | CGUCAGCAAUAUUACGUCAU | -3.73 ± 0.19 | -2.59 ± 0.16
30 | CGUCAGCAAUAUUACGUUCA | -1.26 ± 0.082 | -0.74 ± 0.087
31 | CGUGAGCAAUAUUACGAACG | -2.89 ± 0.38 | 
32 | CGUGAGCAAUAUUACGAAGU | -3.6 ± 0.21 | -2.41 ± 0.19
33 | CGUGAGCAAUAUUACGACAA |  | -3.33 ± 0.25
34 | CGUGAGCAAUAUUACGACUG | -0.73 ± 0.12 | -0.0318 ± 0.16
35 | CGUGAGCAAUAUUACGAGCC |  | -1.35 ± 0.41
36 | CGUGAGCAAUAUUACGCACG | -3.19 ± 0.29 | -2.94 ± 0.47
37 | CGUGAGCAAUAUUACGCAUA | -3.2 ± 0.28 | -1.18 ± 0.34
38 | CGUGAGCAAUAUUACGCAUU | -4.1 ± 0.47 | -2.15 ± 0.19
39 | CGUGAGCAAUAUUACGCCUA | -1.86 ± 0.25 | -0.88 ± 0.36
40 | CGUGAGCAAUAUUACGGACG | -2.08 ± 0.22 | -1.31 ± 0.38
41 | CGUGAGCAAUAUUACGGUUA | -3.15 ± 0.33 | -2.98 ± 0.29
42 | CGUGAGCAAUAUUACGUAUU | -3.5 ± 0.4 | -3.11 ± 0.35
43 | CGUGAGCAAUAUUACGUGAU | -3.8 ± 0.24 | -3.21 ± 0.23
44 | CGUGAGCAAUAUUACGUUCG | -2.61 ± 0.15 | -3.09 ± 0.28
45 | CGUGAGCAAUAUUACGUUGU | -4.24 ± 0.26 | -1.58 ± 0.17
46 | CGUGAGCAAUAUUACGUUUU | -3.42 ± 0.16 | -3.73 ± 0.37
47 | CGUUAGCAAUAUUACGACAG | 0.473 ± 0.14 | -0.134 ± 0.15
48 | CGUUAGCAAUAUUACGACUG | -0.369 ± 0.12 | 0.327 ± 0.14
49 | CGUUAGCAAUAUUACGAUAG | -0.0326 ± 0.15 | -0.211 ± 0.14
50 | CGUUAGCAAUAUUACGAUCC | -1.74 ± 0.19 | -0.851 ± 0.21
51 | CGUUAGCAAUAUUACGAUCG | -0.9 ± 0.11 | -1.12 ± 0.14
52 | CGUUAGCAAUAUUACGCACU | -2.03 ± 0.12 | -0.906 ± 0.11
53 | CGUUAGCAAUAUUACGCAUC |  | -2.72 ± 0.41
54 | CGUUAGCAAUAUUACGCCAG | -0.657 ± 0.22 | 0.474 ± 0.35

Row | Sequence | self-splicing fitness (ln) (30 °C) | self-splicing fitness (ln) (37 °C)
55 | CGUUAGCAAUAUUACGCUGA | -2.78 ± 0.3 | -2.66 ± 0.29
56 | CGUUAGCAAUAUUACGGAUC | -2.18 ± 0.12 | -1.13 ± 0.19
57 | CGUUAGCAAUAUUACGGGUG | -0.565 ± 0.057 | 0.0881 ± 0.071
58 | CGUUAGCAAUAUUACGGUAC | -2.98 ± 0.24 | -2.96 ± 0.38
59 | CGUUAGCAAUAUUACGUAAC |  | -2.3 ± 0.46
60 | CGUUAGCAAUAUUACGUACA | -0.358 ± 0.11 | -0.966 ± 0.12
61 | CGUUAGCAAUAUUACGUACU | -0.583 ± 0.078 | 0.0264 ± 0.097
62 | CGUUAGCAAUAUUACGUAGA | -2.87 ± 0.18 | -1.9 ± 0.22
63 | CGUUAGCAAUAUUACGUAGU | -4.27 ± 0.25 | -2.85 ± 0.23
64 | CGUUAGCAAUAUUACGUGAG | -1.59 ± 0.087 | -0.0698 ± 0.13
65 | CGUUAGCAAUAUUACGUUGC | -3.94 ± 0.34 | -1.95 ± 0.18
66 | CUAAAGCAAUAUUACGAAAA | -3.34 ± 0.41 | -2.19 ± 0.35
67 | CUAAAGCAAUAUUACGAAGA | -2.46 ± 0.27 | -1.61 ± 0.3
68 | CUAAAGCAAUAUUACGAAGG | -1.03 ± 0.095 | -0.0689 ± 0.14
69 | CUAAAGCAAUAUUACGACAG | 0.277 ± 0.093 | 0.751 ± 0.12
70 | CUAAAGCAAUAUUACGAGAG | -1.13 ± 0.075 | -0.601 ± 0.099
71 | CUAAAGCAAUAUUACGAGGG | -2.22 ± 0.094 | -2.22 ± 0.16
72 | CUAAAGCAAUAUUACGAGGU | -4.41 ± 0.24 | -2.81 ± 0.25
73 | CUAAAGCAAUAUUACGAUCG | 0.485 ± 0.073 | 0.485 ± 0.1
74 | CUAAAGCAAUAUUACGAUGC | -3.96 ± 0.3 | -3.1 ± 0.33
75 | CUAAAGCAAUAUUACGAUUU | -4.23 ± 0.28 | -2.46 ± 0.32
76 | CUAAAGCAAUAUUACGCAAA | -3.47 ± 0.25 | 
77 | CUAAAGCAAUAUUACGCUCC | -3.15 ± 0.29 | -2.29 ± 0.35
78 | CUAAAGCAAUAUUACGGAUU | -4.39 ± 0.22 | -2.62 ± 0.23
79 | CUAAAGCAAUAUUACGGGAC | -2.11 ± 0.13 | -0.677 ± 0.13
